Substitutions are numbered along the chain they refer to.
What was measured:
[1] = target: T1, rat LINGO-1 expressed on CHO-K1 cells (CHO-K1-rLINGO-1) (rat, UniProt A0A8I5ZPI2 34-614); experiment: apparent KD, FACS saturation binding on CHO-K1-rLINGO-1 cells, Fab format
T1 construct: range 34-614; not shown: 2 amino acid residue linker
T1 sequence: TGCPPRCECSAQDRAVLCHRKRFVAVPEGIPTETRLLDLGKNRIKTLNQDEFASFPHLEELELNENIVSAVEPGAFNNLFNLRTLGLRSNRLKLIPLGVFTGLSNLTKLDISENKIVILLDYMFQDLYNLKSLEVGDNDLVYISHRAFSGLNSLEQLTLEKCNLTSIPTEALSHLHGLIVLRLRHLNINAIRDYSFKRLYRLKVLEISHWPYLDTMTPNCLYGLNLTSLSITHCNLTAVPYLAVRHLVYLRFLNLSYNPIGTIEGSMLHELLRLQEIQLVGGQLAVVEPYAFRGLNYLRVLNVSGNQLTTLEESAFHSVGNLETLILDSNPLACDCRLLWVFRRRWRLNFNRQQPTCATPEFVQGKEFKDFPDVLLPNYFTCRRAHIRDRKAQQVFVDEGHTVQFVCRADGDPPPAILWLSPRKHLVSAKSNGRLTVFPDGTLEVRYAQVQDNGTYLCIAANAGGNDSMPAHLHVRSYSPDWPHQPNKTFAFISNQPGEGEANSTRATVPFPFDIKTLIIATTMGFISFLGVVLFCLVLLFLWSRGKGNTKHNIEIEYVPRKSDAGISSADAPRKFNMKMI
Procedure: (§1) Cell based affinity of anti-LINGO-1 specific antibodies is determined by FACS saturation binding experiments. […] Otherwise the staining procedure is done identical to the FACS staining procedure described above.
(§2) In detail, CHO-K1-hLINGO-1, CHO-K1-cmLINGO-1 or CHO-K1-rLINGO-1 are detached from culture flasks by versene, washed with FACS buffer and resuspended in FACS buffer. Purified anti-LINGO-1 Fabs are serially diluted in FACS buffer and spread into round bottom 96-well microtiter plates (NUNC™, Wiesbaden, Germany). For each concentration, duplicate wells are incubated with 1.25×10⁴ cells for 30-60 min on ice in a total volume of 100 μl.

Unrelated Fc = experiment: ELISA, Fc fusion captured via goat anti-human IgG Fc, Fab detected with AP-conjugated secondary and AttoPhos
[2] = target: human LINGO-1 expressed on CHO-K1 cells (CHO-K1-hLINGO-1) (human) (UniProt Q96FE5); experiment: apparent KD, FACS saturation binding on CHO-K1-hLINGO-1 cells, Fab format
[3] = target: T2, cynomolgus monkey LINGO-1 expressed on CHO-K1 cells (CHO-K1-cmLINGO-1) (cynomolgus monkey, UniProt Q9N008 34-614); experiment: apparent KD, FACS saturation binding on CHO-K1-cmLINGO-1 cells, Fab format
T2 construct: range 34-614; also called Cynomolgus LINGO-1; not shown: 2 amino acid residue linker
T2 sequence (looked up): T1 sequence with G261S, V286M, A315V, H386R, S494P
Procedure: as §1, §2

[4] = target: T3, human NgR-Fc fusion protein (R&D Systems) (human, UniProt Q9BZR6 27-447, limits assumed); experiment: ELISA, captured Fc fusion protein
T3 construct: Commercial protein; also called captured human NgR-Fc; not shown: Fc part of the commercial fusion protein; not described
T3 sequence (looked up): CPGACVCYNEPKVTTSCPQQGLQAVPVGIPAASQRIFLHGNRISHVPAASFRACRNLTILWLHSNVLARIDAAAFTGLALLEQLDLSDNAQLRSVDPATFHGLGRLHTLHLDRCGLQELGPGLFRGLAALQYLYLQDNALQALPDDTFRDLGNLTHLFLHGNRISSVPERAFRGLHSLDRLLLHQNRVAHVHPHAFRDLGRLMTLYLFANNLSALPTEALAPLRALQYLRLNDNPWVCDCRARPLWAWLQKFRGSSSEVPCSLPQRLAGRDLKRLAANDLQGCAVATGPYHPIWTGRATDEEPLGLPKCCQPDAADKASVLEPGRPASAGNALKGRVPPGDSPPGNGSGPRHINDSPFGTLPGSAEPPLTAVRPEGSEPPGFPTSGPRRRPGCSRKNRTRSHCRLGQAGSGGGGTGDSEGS

[5] = target: T4, human LINGO-1-ΔLRR-Fc (Igleader-hsLINGO-1-ΔLRR-Fc) (human, UniProt Q96FE5 40-556); experiment: ELISA, captured Fc fusion protein
T4 construct: Heterologous secretion signal left out; also called human LINGO-1 lacking the LRR domain
T4 sequence: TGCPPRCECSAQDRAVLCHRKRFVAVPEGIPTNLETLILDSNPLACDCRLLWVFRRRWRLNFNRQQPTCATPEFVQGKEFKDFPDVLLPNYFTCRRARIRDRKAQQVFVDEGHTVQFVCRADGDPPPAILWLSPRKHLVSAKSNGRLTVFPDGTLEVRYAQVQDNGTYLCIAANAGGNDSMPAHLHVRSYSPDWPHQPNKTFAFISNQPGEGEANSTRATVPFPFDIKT

[6] = target: T5, human LINGO-1-Fc fusion protein (natleader-hsLINGO-1-Fc) (human, UniProt Q96FE5 42-556); experiment: ELISA, Fc fusion captured via goat anti-human IgG Fc, Fab detected with AP-conjugated secondary and AttoPhos
T5 construct: also called human recombinant LINGO-1-Fc; captured human LINGO-1-Fc; not shown: protein lette
T5 sequence: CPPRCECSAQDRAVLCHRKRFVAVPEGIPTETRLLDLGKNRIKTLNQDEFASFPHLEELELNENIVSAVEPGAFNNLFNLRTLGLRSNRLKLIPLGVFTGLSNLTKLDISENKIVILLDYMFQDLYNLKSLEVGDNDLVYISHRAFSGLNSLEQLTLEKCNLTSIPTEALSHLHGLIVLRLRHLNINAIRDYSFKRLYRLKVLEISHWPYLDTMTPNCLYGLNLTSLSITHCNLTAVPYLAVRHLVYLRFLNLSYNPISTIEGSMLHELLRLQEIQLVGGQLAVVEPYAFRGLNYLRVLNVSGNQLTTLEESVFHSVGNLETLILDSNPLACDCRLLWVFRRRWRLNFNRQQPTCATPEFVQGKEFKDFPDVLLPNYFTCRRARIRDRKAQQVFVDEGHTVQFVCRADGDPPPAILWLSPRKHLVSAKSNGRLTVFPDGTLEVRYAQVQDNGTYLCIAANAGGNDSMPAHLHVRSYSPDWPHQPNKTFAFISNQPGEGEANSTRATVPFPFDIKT

[7] = target: T3, human NgR-Fc fusion protein (R&D …); experiment: as above
[8] = target: T4, human LINGO-1-ΔLRR-Fc …; experiment: as above

Kd [1]: 24 nM
relative fluorescence units (RFU) (Unrelated Fc): 52 RFU
Kd [2]: 14.1 nM
Kd [3]: 27.1 nM
binding result [4]: no binding
binding result [5]: no binding
relative fluorescence units (RFU) [6]: 98 RFU
relative fluorescence units (RFU) [7]: 68 RFU
relative fluorescence units (RFU) [8]: 49 RFU
B1: anti-LINGO-1 Fab 4784 (Fab, V domains shown)
VH: QVQLKESGPALVKPTQTLTLTCTFSGFSLSSSGVGVGWIRQPPGKALEWLAHIGSDDDKYYSTSLKTRLTISKDTSKNQVVLTMTNMDPVDTATYYCARNQQYGDGYPGYFDYWGQGTLVTVSS
VL: DIELTQPPSVSVAPGQTARISCSGDNIGNYYVYWYQQKPGQAPVLVIYEDTNRPSGIPERFSGSNSGNTATLTISGTQAEDEADYYCQSYDNLHEQVFGGGTKLTVLG

Source: patent US20140255415A1 (Novartis, published 2014)
